Experimental data taken from US20180164286A1 (MEDICAL DIAGNOSTIC LABORATORIES, published 2018).

Key:
[1] = target: T1, Small BiT (SB)-eIF4E, full-length; assay: split-luciferase (NanoBiT) luminescence in HEK293 cells
T1 construct: N-terminal Small BiT fusion of full-length eIF4E (cDNA Origene RC207333), expressed intracellularly in HEK293, MCF-7 or HEK293-derived clones; also called Full-length SB-eIF4E; SB-linked eIF4E

[2] = target: T1, Small BiT (SB)-eIF4E, full-length; assay: cell-based or functional assay
[3] = target: T1, Small BiT (SB)-eIF4E, full-length; assay: split-luciferase luminescence in 3A1 cell line stably expressing SB-eIF4E

B1: LB-4E-BP1 with T37E, T46E, S65E, and T70E (other)
chain: MVFTLEDFVGDWEQTAAYNLDQVLEQGGVSSLLQNLAVSVTPIQRIVRSGENALKIDIHVIIPYEGLSADQMAQIEEVFKVVYPVDDHHFKVILPYGTLVIDGVTPNMLNYFGRPYEGIAVFDGKKITVTGTLWNGNKIIDERLITPDGSMLFRVTINSGSSGGGGSGGGGSSGMSGGSSCSQTPSRAIPATRRVVLGDGVQLPPGDYSTEPGGTLFSTEPGGTRIIYDRKFLMECRNEPVTKEPPRDLPTIPGVTSPSSDEPPMEASQSHLRNSPEDKRAGGEESQFEMDI
notes: All four mTOR phosphorylation sites changed to glutamate on the LB-4E-BP1 plasmid; The residue numbers count on 4E-BP1 itself; also called T37/46/70E/S65E (all 4 sites mutated); all E
binding result [1]: no binding

B2: 4E-BP1 with C-terminal LB at residue 75 (other, UniProt Q13541 1-75, looked up, not shown: large carriers)
chain: MSGGSSCSQTPSRAIPATRRVVLGDGVQLPPGDYSTTPGGTLFSTTPGGTRIIYDRKFLMECRNSPVTKTPPRDL
fold-change of split-luciferase luminescence, rapamycin (50 nM, 1 h) over vehicle; HEK293 cells [2]: 0.83 fold

B3: Large BiT (LB)-4E-BP2, full-length (other)
chain: MVFTLEDFVGDWEQTAAYNLDQVLEQGGVSSLLQNLAVSVTPIQRIVRSGENALKIDIHVIIPYEGLSADQMAQIEEVFKVVYPVDDHHFKVILPYGTLVIDGVTPNMLNYFGRPYEGIAVFDGKKITVTGTLWNGNKIIDERLITPDGSMLFRVTINSGSSGGGGSGGGGSSGMSSSAGSGHQPSQSRAIPTRTVAISDAAQLPHDYCTTPGGTLFSTTPGGTRIIYDRKFLLDRRNSPMAQTPPCHLPNIPGVTSPGTLIEDSKVEVNNLNNLNNHDRKHAVGDDAQFEMDI
fold-change of split-luciferase luminescence, rapamycin (50 nM, 1 h) over vehicle; HEK293 cells [2]: 1.84 fold

B4: D55Y LB-4E-BP2 (other)
chain: MVFTLEDFVGDWEQTAAYNLDQVLEQGGVSSLLQNLAVSVTPIQRIVRSGENALKIDIHVIIPYEGLSADQMAQIEEVFKVVYPVDDHHFKVILPYGTLVIDGVTPNMLNYFGRPYEGIAVFDGKKITVTGTLWNGNKIIDERLITPDGSMLFRVTINSGSSGGGGSGGGGSSGMSSSAGSGHQPSQSRAIPTRTVAISDAAQLPHDYCTTPGGTLFSTTPGGTRIIYYRKFLLDRRNSPMAQTPPCHLPNIPGVTSPGTLIEDSKVEVNNLNNLNNHDRKHAVGDDAQFEMDI
notes: Patient (COSMIC) mutation made in LB-4E-BP2 as a linear expression cassette; The residue number counts on 4E-BP2 itself; also called 4EBP2-D55Y
binding result [3]: no binding

B5: R62P LB-4E-BP2 (other)
chain: MVFTLEDFVGDWEQTAAYNLDQVLEQGGVSSLLQNLAVSVTPIQRIVRSGENALKIDIHVIIPYEGLSADQMAQIEEVFKVVYPVDDHHFKVILPYGTLVIDGVTPNMLNYFGRPYEGIAVFDGKKITVTGTLWNGNKIIDERLITPDGSMLFRVTINSGSSGGGGSGGGGSSGMSSSAGSGHQPSQSRAIPTRTVAISDAAQLPHDYCTTPGGTLFSTTPGGTRIIYDRKFLLDPRNSPMAQTPPCHLPNIPGVTSPGTLIEDSKVEVNNLNNLNNHDRKHAVGDDAQFEMDI
notes: Patient (COSMIC) mutation made in LB-4E-BP2 as a linear expression cassette; The residue number counts on 4E-BP2 itself; also called 4EBP2-R62P
binding result [3]: no binding
